Assay: soluble on expression in E. coli; label from the status in PepcDB or PDB records
For “SGEIKVSPDYNWFRGTVPLKKIIVDDDDSKIWSLYDAGPRSIRCPLIFLPPVSGTADVFFRQILALTGWGYRVIALQYPVYWDHLEFCDGFRKLLDHLQLDKVHLFGASLGGFLAQKFAEYTHKSPRVHSLILCNSFSDTSIFNQTWTANSFWLMPAFMLKKIVLGNFSSGPVDPMMADAIDFMVDRLESLGQSELASRLTLNCQNSYVEPHKIRDIPVTIMDVFDQSALSTEAKEEMYKLYPNARRAHLKTGGNFPYLCRSAEVNLYVQIHLLQFHGTKYAAIDPSMVSAEELEVQKGSLGISQEEQ”, the “soluble on expression in E. coli” value was “soluble”. In the case of “MHHHHHHSSGRENLYFQGSSESVRVVVRCRPMNGKEKAASYDKVVDVDVKLGQVSVKNPKGTAHEMPKTFTFDAVYDWNAKQFELYDETFRPLVDSVLQGFNGTIFAYGQTGTGKTYTMEGIRGDPEKRGVIPNSFDHIFTHISRSQNQQYLVRASYLEIYQEEIRDLLSKDQTKRLELKERPDTGVYVKDLSSFVTKSVKEIEHVMNVGNQNRSVGATNMNEHSSRSHAIFVITIECSEVGLDGENHIRVGKLNLVDLAGSERQAKTGAQGERLKEATKINLSLSALGNVISALVDGKSTHIPYRDSKLTRLLQDSLGGNAKTVMVANVGPASYNVEETLTTLRYANRAKNIKNKPRVNEDPKDALLREFQ”, the “soluble on expression in E. coli” value is reported as “soluble”. In the case of “MSKLDLNALNELPKVDRILALAETNAELEKLDAEGRVAWALDNLPGEYVLSSSFGIQAAVSLHLVNQIRPDIPVILTDTGYLFPETYRFIDELTDKLKLNLKVYRATESAAWQEARYGKLWEQGVEGIEKYNDINKVEPMNRALKELNAQTWFAGLRREQSGSRANLPVLAIQRGVFKVLPIIDWDNRTIYQYLQKHGLKYHPLWDEGYLSVGDTHTTRKWEPGMAEEETRFFGLKRECGLHEGLEHHHHHH”, the “soluble on expression in E. coli” value is reported as “soluble”. For “MEPRFAGYAQKVRDSFARQPVMATLGARIDTLLPGRVELCMPYDRALTQQHGFLHAGIVSTVLDSACGYAAFSLMEEEAAVLTVEFKVNFLNPAEGERFAFRAEVVKPGRTLTVATATAYAFRDGEERAIATMTATLMALIGLEHHHHHH”, the “soluble on expression in E. coli” value was “soluble”. In the case of “MHKVVIVGRPNVGKSSLFNRLLKKRSAVVADVPGVTRDLKEGVVETDRGRFLLVDTGGLWSGDKWEKKIQEKVDRALEDAEVVLFAVDGRAELTQADYEVAEYLRRKGKPVILVATKVDDPKHELYLGPLYGLGFGDPIPTSSEHARGLEELLEAIWERLPVRQIETEPEVAGIRLAIVGRPNAGKSSLLNAILGEERVIVSEEPGTTRDAIDVEFFFGGQRFVLVDTAGIRKRPENLVEELAIRRSLRAMDEADVVLLVVDPFQVGDRELKLANEALDRGKPVLLVITKWDLVDKEDAPKMRRLLREKLAHLDHLPRVFTSALTRQNLDRIFREAVRLHELNQTRVPTAELNRWVAVWTSRVQMPNFKGKPLKILYATQPEVAPPTFVFFVNHPEFVTRAFENYLKNRIGEDLGLREVPFRLVFRGRREE”, the “soluble on expression in E. coli” value is reported as “soluble”. For “GPSRVVYLGSIPYDQTEEQILDLCSNVGPVINLKMMFDPQTGRSKGYAFIEFRDLESSASAVRNLNGYQLGSRFLKCGYSSNSDISGVSQQQQQQYN”, the “soluble on expression in E. coli” value was “soluble”. With “MRGSHHHHHHGMSCSKSVIKEEMLIDLHLEGTFNGHYFEIKGKGKGQPNEGTNTVTLEVTKGGPLPFGWHILCPQFQYGNKAFVHHPDNIHDYLKLSFPEGYTWERSMHFEDGGLCCITNDISLTGNCFYYDIKFTGLNFPPNGPVVQKKTTGWEPSTERLYPRDGVLIGDIHHALTVEGGGHYACDIKTVYRAKKAALKMPGYHYVDTKLVIWNNDKEFMKVEEHEIAVARHHPFYEPKKDK” the “soluble on expression in E. coli” value was “soluble”. For “MAATVDTMSEEVKRLIALYELTPHPASGGWFRETYRSDVQVEAEGFDGKRSVLTMIYYLMQAGQPDPFHRVKSDETFVHNLGGSMKIHMIHPDGSYSCSILGNPLEHPEARHQVVVPRRVWFAQEVDGYCLASVLVAPGFDFKDFSLGKREELIKEYPQHRDVIMRCTSSDP”, the “soluble on expression in E. coli” value was “soluble”. With “MKTLLEVKDLQVSFDTHAGEVQAVRGVTFDLKKGETLAIVGESGSGKSVTSKALMGLIPNPPGRIKNGEIVFEGRDLTKLTEKEMQQVRGKDIAMIFQDPMTSLNPTMTIGNQIMEGLIKHQGMSKADARKVALELIDLVGIPNPEARLKQYPHQFSGGMRQRVVIAMALACNPKLLIADEPTTALDVTIQAQILELMKDIQQKTEAAIIFITHDLGVVANVADRVAVMYAGKVVEIGTVDEIFYNPKHPYTWGLIASMPSLDGSEEELYAIPGTPPDLLKPPKGDAFAPRNPQALKIDFEMDPPLFKVSDTHYAATWLLHEQAPEVRPPAVVEKRILQMKAGEQHD” the “soluble on expression in E. coli” value was “not soluble”. With “MQREKVDVLVIGAGPAGTVAASLVNKSGFKVKIVEKQKFPRFVIGESLLPRCMEHLDEAGFLDAVKAQGFQQKFGAKFVRGKEIADFNFSDQFSNGWNWTWQVPRGNFDKTLADEAARQGVDVEYEVGVTDIKFFGTDSVTTIEDINGNKREIEARFIIDASGYGRVIPRMFGLDKPSGFESRRTLFTHIKDVKRPVAAEMEGNRITAVVHKPKVWIWVIPFSNGNTSVGFVGEPSYFDEYTGTPEERMRAMIANEGHIAERFKSEEFLFEPRTIEGYAISASKLYGDGFVLTGNATEFLDPIFSSGATFAMESGSKGGKLAVQFLKGEEVNWEKDFVEHMMQGIDTFRSFVTGWYDGTLHAVFFAKNPDPDHKRMICSVLAGYVWDKNNPFVKKHNTILKTLAKVIQMGEEALEHHHHHH” the “soluble on expression in E. coli” value was “soluble”. With “MGSDKIHHHHHHMIGHSEVIRCFGMSGKVYFFNDSGNIQKGVHDLPPKGLACFVKIKNMMMQAKPAEVSMVDALVDPWLGAIGRDFEGYRNHCRRVFIFACTLAGAEGESREKIAIAAAFHDLGIWTDNTFDYLEPSKRLASAYLASTSKAEWTDEIKAMIEQHHKVTPWSCKPGWLVEPFRKADWIDVTLGARNFELNRSYIREIQRRYPNAGFHATLARLSFERMKTHPKDPLPMMRW” the “soluble on expression in E. coli” value was “not soluble”. In the case of “MHNNENVSGISAYLLGLIWGDGGLYKLKYKGNRSEYRVVITQKSENLIKQFIAPRMQFLIDELNVKSKIQIVKGDTRYELRVSSKKLYYYFANMLERIRLFNGNRFLAYLAGIVDGDGSIIAQIKPNQSYKFKHQLSLTFQVTQKTERRWFLDKLVDEIGVGYVRDRGSVSDYILSEIKPLHNFLTQLQPFLNFKQKQANLVLKIIEQLPSAKESPDKFLEVCTWVDQIAALNDSKTRKTTSETVRAVLDSLSEKKKSSP”, the “soluble on expression in E. coli” value is reported as “soluble”. With “MGSDKIHHHHHHMSIAIRRDEEIALSCHGVSKSFVISGEQNIWRMFCALPVRGEVFAALRDVSLEVPRGKIVGILGRNGAGKSTLLRVLGGVYQPTSGTVDVHGQVCGLFEMGGFGNRELSGREYATRYLTVMGAPRKDRGDLLADIAEFSELGADFDRKILTYSAGMAARLYFSTATAMRHEIYLIDELLSVGDEHFQAKCWIRMRNLLLNGASGILVTHDWVSTLKLCQQSHILERGSIVASGRTDAAVVKYLDLPVPDGALARFCDSDRATWHAVAGEDAVFEFDIESEEDIPLVFTYSVELMRIGIGWDIMLLGQRPIGSGNGRRRVQLKVPALPLAPGEYSLTVGLIKEKTRAEDEAVICDARGWTTGNGYVLEVSGTLEQGTTILPMEISGWIDD” the “soluble on expression in E. coli” value was “not soluble”. In the case of “ELPDFFQGKHFFLYGEFPGDERRKLIRYVTAFNGELEDYMSDRVQFVITAQEWDPSFEEALMDNPSLAFVRPRWIYSCNEKQKLLPHQLYGVVPQA”, the “soluble on expression in E. coli” value is reported as “soluble”. For “MEIIRPMRVAIVAESFLPNVNGVTNSVLRVLEHLKANGHDALVIAPGARDFEEEIGHYLGFEIVRVPTVRVPLIDSLPIGVPLPSVTSVLREYNPDIIHLASPFVLGGAAAFAARQLRIPAIAIYQTDVAGFSQRYHLAPLATASWEWIKTVHNMCQRTLAPSSMSIDELRDHGINDIFHWARGVDSKRFHPGKRSVALRKSWDPSGAKKIVGFVGRLASEKGVECLAGLSGRSDIQLVIVGDGPEAKYLQEMMPDAIFTGALGGEELATTYASLDLFVHPGEFETFCQAIQEAQASGVPTIGPRAGGPIDLINEGVNGLLLDVVDFKETLPAAAEWILDDSRHSEMCAAAWEGVKDKTWEALCTQLLQHYADVIALSQRIPLTFFGPSAEVAKLPLWVARALGVRTRISIEALEHHHHHH”, the “soluble on expression in E. coli” value was “soluble”. With “MSNEYDEYIANHTDPVKAINWNVIPDEKDLEVWDRLTGNFWLPEKIPVSNDIQSWNKMTPQEQLATMRVFTGLTLLDTIQGTVGAISLLPDAETMHEEAVYTNIAFMESVHAKSYSNIFMTLASTPQINEAFRWSEENENLQRKAKIIMSYYNGDDPLKKKVASTLLESFLFYSGFYLPMYLSSRAKLTNTADIIRLIIRDESVHGYYIGYKYQQGVKKLSEAEQEEYKAYTFDLMYDLYENEIEYTEDIYDDLGWTEDVKRFLRYNANKALNNLGYEGLFPTDETKVSPAILSSLSPNADENHDFFSGSGSSYVIGKAEDTTDDDWDF” the “soluble on expression in E. coli” value was “soluble”. For “MGSDKIHHHHHHMLSRILEKYRENGIQGIVLALISRFPGVRAVCVYYVYRLPFDKLVRKQLSVGNLKVVQVKSDSMGDLIRVQDKPDIFGERFQMGHYGFVAYVNNDPVAYLWGQEGPVHVERRFGFEVPIKDNQVFYYDSYTIPEWRKSGVGRALIQESIDFFKNGLGKSELIAIIETGNLVSQKTYERMGFVREAMHIHLDIIGKKINKQLARMVTQ”, the “soluble on expression in E. coli” value was “not soluble”. For “MATYYSNDFRAGLKIMLDGEPYAVEASEFVKPGKGQAFARVKLRRLLTGTRVEKTFKSTDSAEGADVVDMNLTYLYNDGEFWHFMNNETFEQLSADAKAIGDNAKWLLDQAECIVTLWNGQPISVTPPNFVELEIVDTDPGLKGDTAGTGGKPATLSTGAVVKVPLFVQIGEVIKVDTRSGEYVSRVK”, the “soluble on expression in E. coli” value was “soluble”. With “MFQLLAVCPMGLEAVVAKEIQELGYDTQVENGRIFFEGDESAIVRCNLWLRTADRIKIVMGRFNATTFDELFEQTKSLPWETVIDKEGNFPVQGRSVKSTLYSVPDCQAITKKAIVERLKHAHQEKGWLSETGAKYPVEVAILKDNVLLTIDTAGSGLNKRGYRIAQGEAPIKETLAASLIRLANWNGNTPLIDPFCGSGTIAIEACLIAQNIAPGFNRDFVSEQWNMMPPNIYDKFRDEADQLADYDKDIQVYASDIDPEMIEIAKRNAEEVGLGDIIQFNVKDVNTLSIDTDKPVALVGNPPYGERIGDREEVEEMYRYIGTLLKQHPHLSAYILTSNKEFEYLVNRKATKRRKLFNGYIECTYYQYWGKKQSNKN” the “soluble on expression in E. coli” value was “not soluble”. In the case of “SKLDSYTHLSFYEKRELFRKKLREIEGPEVTLVNEVDDEPCPSLDFQFISQYRLTQGVIPPDPNFQSGCNCSSLGGCDLNNPSRCECLDDLDEPTHFAYDAQGRVRADTGAVIYECNSFCSCSMECPNRVVQRGRTLPLEIFKTKEKGWGVRSLRFAPAGTFITCYLGEVITSAEAAKRDKNYDDDGITYLFDLDMFDDASEYTVDAQNYGDVSRFFNHSCSPNIAIYSAVRNHGFRTIYDLAFFAIKDIQPLEELTFDYAGAKDFSPVQSQKSQQNRISKLRRQCKCGSANCRGWLFG”, the “soluble on expression in E. coli” value is reported as “soluble”. For “METAWSNILNYKNVSDRYILTEKDKKGAFTRQYFEVYEARLKELKPRILENAEREIGKGKFTHSQLSDAKQDEEIFVVGVIVKRIAARPSILKSLLNEDKVAYDDYEEDAEEDEVKRYAGSIEDRIELESDKQTVRLEGNISMDECATGCCVGVLGKLGKEGVFHVNRLVWPSVKVPKKVAVDGTIAFVSGLDLTGDLEDDRLTISGLEFMADWMNVQVGNENQCPPIDRLVVIGPLVETKSNGCDVQSVVRTLTLSRAEKHSSTASLITVDKIINSIAEKPLVNTVDVTPGVGDPCSSMWPLPPIHRVCLPRCGMSDKKVNLVTNPYEFEVNGLRVMTMSGENVSELLRTSLKWTGADAIENIIKWQHVAPNCPDTLDAFPVAERDPLIMDITPHVIICGNQPHAEFRHIPIDGSNCLVVCLPKFSKTRVACFLNLSDLSLKWQNFDHQF”, the “soluble on expression in E. coli” value was “not soluble”.
